Experimental findings from publication PMC9871958 are described below.

This assay addresses SARS-CoV-2 spike ectodomain (S-trimer) (SARS-CoV-2) (UniProt P0DTC2). The experiment in a line: cryo-EM structure.

“SARS-CoV-2 spike ectodomain (S-trimer) (from UniProt P0DTC2 14-1213) (complex)” gave a stoichiometry N of 3.
